According to article doi:10.1101/2023.02.21.529347v1:

Tested on: CC1(C)[C@H]2CC=C(C=O)[C@@H]1C2
Assay: purified protein
Conditions: co-substrate F420H2; apparent value; fit with substrate inhibition

Substance: MSMEG_2850 (Mycolicibacterium smegmatis MC2 155; Y124M)
- Km: 260 ± 20 µM
- kcat: 0.65 ± 0.018 s⁻¹
